Assay results as given in article PMC7367873, “Dissecting the sequence determinants for dephosphorylation by the catalytic subunits of phosphatases PP1 and PP2A” (Nature Communications, 2020).

Experiments:
[1] = system: GFP-14-3-3β; assay: GFP-14-3-3β co-IP with LC-MS/MS, untreated GFP-14-3-3β versus GFP control (14-3-3 interactome); format: binding, human; settings: 3 replicates each
[2] = system: GFP-14-3-3β and its binding proteins; assay: GFP-14-3-3β co-IP with LC-MS/MS label-free quantification, untreated versus PP1c-treated; set-up: species or system human; settings: 3 replicates each
[3] = untreated vs GFP, LFQ intensities
[4] = PP1 vs untreated, LFQ intensities

Difference (log2), PP1 vs untreated [2, 4] | Difference (log2), PP1 vs untreated ([2]; log2 difference, pairwise comparison PP1 vs untreated, label-free quantification) | Molecule | Difference (log2), untreated vs GFP [1, 3] | Difference (log2), untreated vs GFP ([1]; log2 difference, pairwise comparison untreated vs GFP, label-free quantification)
0.5123 log2 |  | STT3A (protein, UniProt P46977 1-705, looked up) Dolichyl-diphosphooligosacchar …: MTKFGFLRLSYEKQDTLLKLLILSMAAVLSFSTRLFAVLRFESVIHEFDPYFNYRTTRFLAEEGFYKFHNWFDDRAWYPLGRIIGGTIYPGLMITSAAIYHVLHFFHITIDIRNVCVFLAPLFSSFTTIVTYHLTKELKDAGAGLLAAAMIAVVPGYISRSVAGSYDNEGIAIFCMLLTYYMWIKAVKTGSICWAAKCALAYFYMVSSWGGYVFLINLIPLHVLVLMLTGRFSHRIYVAYCTVYCLGTILSMQISFVGFQPVLSSEHMAAFGVFGLCQIHAFVDYLRSKLNPQQFEVLFRSVISLVGFVLLTVGALLMLTGKISPWTGRFYSLLDPSYAKNNIPIIASVSEHQPTTWSSYYFDLQLLVFMFPVGLYYCFSNLSDARIFIIMYGVTSMYFSAVMVRLMLVLAPVMCILSGIGVSQVLSTYMKNLDISRPDKKSKKQQDSTYPIKNEVASGMILVMAFFLITYTFHSTWVTSEAYSSPSIVLSARGGDGSRIIFDDFREAYYWLRHNTPEDAKVMSWWDYGYQITAMANRTILVDNNTWNNTHISRVGQAMASTEEKAYEIMRELDVSYVLVIFGGLTGYSSDDINKFLWMVRIGGSTDTGKHIKENDYYTPTGEFRVDREGSPVLLNCLMYKMCYYRFGQVYTEAKRPPGFDRVRNAEIGNKDFELDVLEEAYTTEHWLVRIYKVKDLDNRGLSRT | 0.4915 log2 | 
0.4707 log2 |  | C14orf166 (protein, UniProt Q9Y224 1-244, looked up) RNA transcription, …: MFRRKLTALDYHNPAGFNCKDETEFRNFIVWLEDQKIRHYKIEDRGNLRNIHSSDWPKFFEKYLRDVNCPFKIQDRQEAIDWLLGLAVRLEYGDNAEKYKDLVPDNSKTADNATKNAEPLINLDVNNPDFKAGVMALANLLQIQRHDDYLVMLKAIRILVQERLTQDAVAKANQTKEGLPVALDKHILGFDTGDAVLNEAAQILRLLHIEELRELQTKINEAIVAVQAIIADPKTDHRLGKVGR | 1.488 log2 | 
0.4791 log2 |  | RBM39 (protein, UniProt Q14498 2-530, looked up) RNA-binding protein 39: ADDIDIEAMLEAPYKKDENKLSSANGHEERSKKRKKSKSRSRSHERKRSKSKERKRSRDRERKKSKSRERKRSRSKERRRSRSRSRDRRFRGRYRSPYSGPKFNSAIRGKIGLPHSIKLSRRRSRSKSPFRKDKSPVREPIDNLTPEERDARTVFCMQLAARIRPRDLEEFFSTVGKVRDVRMISDRNSRRSKGIAYVEFVDVSSVPLAIGLTGQRVLGVPIIVQASQAEKNRAAAMANNLQKGSAGPMRLYVGSLHFNITEDMLRGIFEPFGRIESIQLMMDSETGRSKGYGFITFSDSECAKKALEQLNGFELAGRPMKVGHVTERTDASSASSFLDSDELERTGIDLGTTGRLQLMARLAEGTGLQIPPAAQQALQMSGSLAFGAVAEFSFVIDLQTRLSQQTEASALAAAASVQPLATQCFQLSNMFNPQTEEEVGWDTEIKDDVIEECNKHGGVIHIYVDKNSAQGNVYVKCPSIAAAIAAVNALHGRWFAGKMITAAYVPLPTYHNLFPDSMTATQLLVPSRR | 0.5608 log2 | 
0.4916 log2 |  | PKP2 (protein, UniProt Q99959 1-881, looked up) Plakophilin-2: MAAPGAPAEYGYIRTVLGQQILGQLDSSSLALPSEAKLKLAGSSGRGGQTVKSLRIQEQVQQTLARKGRSSVGNGNLHRTSSVPEYVYNLHLVENDFVGGRSPVPKTYDMLKAGTTATYEGRWGRGTAQYSSQKSVEERSLRHPLRRLEISPDSSPERAHYTHSDYQYSQRSQAGHTLHHQESRRAALLVPPRYARSEIVGVSRAGTTSRQRHFDTYHRQYQHGSVSDTVFDSIPANPALLTYPRPGTSRSMGNLLEKENYLTAGLTVGQVRPLVPLQPVTQNRASRSSWHQSSFHSTRTLREAGPSVAVDSSGRRAHLTVGQAAAGGSGNLLTERSTFTDSQLGNADMEMTLERAVSMLEADHMLPSRISAAATFIQHECFQKSEARKRVNQLRGILKLLQLLKVQNEDVQRAVCGALRNLVFEDNDNKLEVAELNGVPRLLQVLKQTRDLETKKQITDHTVNLRSRNGWPGAVAHACNPSTLGGQGGRITRSGVRDQPDQHGLLWNLSSNDKLKNLMITEALLTLTENIIIPFSGWPEGDYPKANGLLDFDIFYNVTGCLRNMSSAGADGRKAMRRCDGLIDSLVHYVRGTIADYQPDDKATENCVCILHNLSYQLEAELPEKYSQNIYIQNRNIQTDNNKSIGCFGSRSRKVKEQYQDVPMPEEKSNPKGVEWLWHSIVIRMYLSLIAKSVRNYTQEASLGALQNLTAGSGPMPTSVAQTVVQKESGLQHTRKMLHVGDPSVKKTAISLLRNLSRNLSLQNEIAKETLPDLVSIIPDTVPSTDLLIETTASACYTLNNIIQNSYQNARDLLNTGGIQKIMAISAGDAYASNKASKAASVLLYSLWAHTELHHAYKKAQFKKTDFVNSRTAKAYHSLKD | 1.704 log2 | 
 | 2.113 | OASL (protein, UniProt Q15646 2-514, looked up) 2'-5'-oligoadenylate …: ALMQELYSTPASRLDSFVAQWLQPHREWKEEVLDAVRTVEEFLRQEHFQGKRGLDQDVRVLKVVKVGSFGNGTVLRSTREVELVAFLSCFHSFQEAAKHHKDVLRLIWKTMWQSQDLLDLGLEDLRMEQRVPDALVFTIQTRGTAEPITVTIVPAYRALGPSLPNSQPPPEVYVSLIKACGGPGNFCPSFSELQRNFVKHRPTKLKSLLRLVKHWYQQYVKARSPRANLPPLYALELLTIYAWEMGTEEDENFMLDEGFTTVMDLLLEYEVICIYWTKYYTLHNAIIEDCVRKQLKKERPIILDPADPTLNVAEGYRWDIVAQRASQCLKQDCCYDNRENPISSWNVKRARDIHLTVEQRGYPDFNLIVNPYEPIRKVKEKIRRTRGYSGLQRLSFQVPGSERQLLSSRCSLAKYGIFSHTHIYLLETIPSEIQVFVKNPDGGSYAYAINPNSFILGLKQQIEDQQGLPKKQQQLEFQGQVLQDWLGLGIYGIQDSDTLILSKKKGEALFPAS |  | -1.1672
0.5248 log2 |  | FUBP3 (protein, UniProt Q96I24 2-572, looked up) Far upstream element-binding …: AELVQGQSAPVGMKAEGFVDALHRVRQIAAKIDSIPHLNNSTPLVDPSVYGYGVQKRPLDDGVGNQLGALVHQRTVITEEFKVPDKMVGFIIGRGGEQISRIQAESGCKIQIASESSGIPERPCVLTGTPESIEQAKRLLGQIVDRCRNGPGFHNDIDSNSTIQEILIPASKVGLVIGRGGETIKQLQERTGVKMVMIQDGPLPTGADKPLRITGDAFKVQQAREMVLEIIREKDQADFRGVRGDFNSRMGGGSIEVSVPRFAVGIVIGRNGEMIKKIQNDAGVRIQFKPDDGISPERAAQVMGPPDRCQHAAHIISELILTAQERDGFGGLAAARGRGRGRGDWSVGAPGGVQEITYTVPADKCGLVIGKGGENIKSINQQSGAHVELQRNPPPNSDPNLRRFTIRGVPQQIEVARQLIDEKVGGTNLGAPGAFGQSPFSQPPAPPHQNTFPPRSSGCFPNMAAKVNGNPHSTPVSGPPAFLTQGWGSTYQAWQQPTQQVPSQQSQPQSSQPNYSKAWEDYYKKQSHAASAAPQASSPPDYTMAWAEYYRQQVAFYGQTLGQAQAHSQEQ | 0.3039 log2 | 
0.5082 log2 |  | DDX5 (protein, UniProt P17844 1-614, looked up) Probable ATP-dependent RNA …: MSGYSSDRDRGRDRGFGAPRFGGSRAGPLSGKKFGNPGEKLVKKKWNLDELPKFEKNFYQEHPDLARRTAQEVETYRRSKEITVRGHNCPKPVLNFYEANFPANVMDVIARQNFTEPTAIQAQGWPVALSGLDMVGVAQTGSGKTLSYLLPAIVHINHQPFLERGDGPICLVLAPTRELAQQVQQVAAEYCRACRLKSTCIYGGAPKGPQIRDLERGVEICIATPGRLIDFLECGKTNLRRTTYLVLDEADRMLDMGFEPQIRKIVDQIRPDRQTLMWSATWPKEVRQLAEDFLKDYIHINIGALELSANHNILQIVDVCHDVEKDEKLIRLMEEIMSEKENKTIVFVETKRRCDELTRKMRRDGWPAMGIHGDKSQQERDWVLNEFKHGKAPILIATDVASRGLDVEDVKFVINYDYPNSSEDYIHRIGRTARSTKTGTAYTFFTPNNIKQVSDLISVLREANQAINPKLLQLVEDRGSGRSRGRGGMKDDRRDRYSAGKRGGFNTFRDRENYDRGYSSLLKRDFGAKTQNGVYSAANYTNGSFGSNFVSAGIQTSFRTGNPTGTYQNGYDSTQQYGSNVPNMHNGMNQQAYAYPATAAAPMIGYPMPTGYSQ | 0.1802 log2 | 
0.4773 log2 |  | ATP5C1 (protein, UniProt P36542 26-298, looked up) ATP synthase F(1) complex …: ATLKDITRRLKSIKNIQKITKSMKMVAAAKYARAERELKPARIYGLGSLALYEKADIKGPEDKKKHLLIGVSSDRGLCGAIHSSIAKQMKSEVATLTAAGKEVMLVGIGDKIRGILYRTHSDQFLVAFKEVGRKPPTFGDASVIALELLNSGYEFDEGSIIFNKFRSVISYKTEEKPIFSLNTVASADSMSIYDDIDADVLQNYQEYNLANIIYYSLKESTTSEQSARMTAMDNASKNASEMIDKLTLTFNRTRQAVITKELIEIISGAAALD | 1.174 log2 | 
0.4677 log2 |  | SLC25A5 (protein, UniProt P05141 1-298, looked up) ADP/ATP translocase 2: MTDAAVSFAKDFLAGGVAAAISKTAVAPIERVKLLLQVQHASKQITADKQYKGIIDCVVRIPKEQGVLSFWRGNLANVIRYFPTQALNFAFKDKYKQIFLGGVDKRTQFWLYFAGNLASGGAAGATSLCFVYPLDFARTRLAADVGKAGAEREFRGLGDCLVKIYKSDGIKGLYQGFNVSVQGIIIYRAAYFGIYDTAKGMLPDPKNTHIVISWMIAQTVTAVAGLTSYPFDTVRRRMMMQSGRKGTDIMYTGTLDCWRKIARDEGGKAFFKGAWSNVLRGMGGAFVLVLYDEIKKYT | 0.2489 log2 | 
